A word on the Kd: it is the equilibrium constant for the complex coming apart. Read a high Kd as weaker binding. For orientation: stoichiometry N means the number of molecules, sites or subunits per partner or assembly.

The record followed here is paper PMC11897886 (Nucleic Acids Research, 2024).

The target in assay [1] is FITC-labeled Dcp2-UBM2 peptide (aa 694-718) (S. cerevisiae) (UniProt P53550). Briefly: fluorescence polarisation.
Assay [2] concerns the target FITC-labeled Dcp2-UBM1 peptide (aa 456-479) (S. cerevisiae) (UniProt P53550). Kind of assay: fluorescence polarisation. On the technique in general: Polarisation of emitted light reports the rotation of a fluorescent probe.
In assay [3] the target is CBP-Upf1-CH-His (S. cerevisiae). Briefly: SDS-PAGE band identified by Western blotting and mass spectrometry. A general note: A western blot detects proteins with antibodies after separation by electrophoresis.
Assay [4] deals with T1, CBP-Upf1-FL (S.c. Upf1 full-length) (S. cerevisiae, UniProt P30771 1-971).
T1 sequence: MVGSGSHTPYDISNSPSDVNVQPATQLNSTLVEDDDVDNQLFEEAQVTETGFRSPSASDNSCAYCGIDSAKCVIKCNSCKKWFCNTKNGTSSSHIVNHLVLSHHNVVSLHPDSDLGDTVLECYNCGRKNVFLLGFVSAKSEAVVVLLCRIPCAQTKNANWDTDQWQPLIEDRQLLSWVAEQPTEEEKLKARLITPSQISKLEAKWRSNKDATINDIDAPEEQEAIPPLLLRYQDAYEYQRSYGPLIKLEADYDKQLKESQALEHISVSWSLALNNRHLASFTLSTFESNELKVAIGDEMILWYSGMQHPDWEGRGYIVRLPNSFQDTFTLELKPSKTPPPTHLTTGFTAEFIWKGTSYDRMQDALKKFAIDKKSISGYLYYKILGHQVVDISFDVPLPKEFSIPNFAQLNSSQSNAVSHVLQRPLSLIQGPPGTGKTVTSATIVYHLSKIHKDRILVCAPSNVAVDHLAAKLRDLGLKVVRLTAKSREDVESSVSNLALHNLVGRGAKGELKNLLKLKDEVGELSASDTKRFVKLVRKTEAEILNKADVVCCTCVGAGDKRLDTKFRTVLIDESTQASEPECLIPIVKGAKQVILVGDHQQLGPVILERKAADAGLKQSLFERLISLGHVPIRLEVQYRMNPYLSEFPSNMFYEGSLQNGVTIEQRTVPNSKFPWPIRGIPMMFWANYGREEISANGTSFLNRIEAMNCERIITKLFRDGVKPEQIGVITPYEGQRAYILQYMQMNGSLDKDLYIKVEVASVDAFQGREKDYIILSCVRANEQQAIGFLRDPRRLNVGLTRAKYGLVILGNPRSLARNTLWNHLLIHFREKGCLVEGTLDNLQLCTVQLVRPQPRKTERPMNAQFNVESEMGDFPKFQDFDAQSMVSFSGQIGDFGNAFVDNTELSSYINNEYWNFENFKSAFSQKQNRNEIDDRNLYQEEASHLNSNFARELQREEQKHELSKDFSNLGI
Briefly: pull-down.

In a further assay the target is T2, CBP-Upf1-HD-Ct (S. cerevisiae, UniProt P30771 221-971).
T2 sequence: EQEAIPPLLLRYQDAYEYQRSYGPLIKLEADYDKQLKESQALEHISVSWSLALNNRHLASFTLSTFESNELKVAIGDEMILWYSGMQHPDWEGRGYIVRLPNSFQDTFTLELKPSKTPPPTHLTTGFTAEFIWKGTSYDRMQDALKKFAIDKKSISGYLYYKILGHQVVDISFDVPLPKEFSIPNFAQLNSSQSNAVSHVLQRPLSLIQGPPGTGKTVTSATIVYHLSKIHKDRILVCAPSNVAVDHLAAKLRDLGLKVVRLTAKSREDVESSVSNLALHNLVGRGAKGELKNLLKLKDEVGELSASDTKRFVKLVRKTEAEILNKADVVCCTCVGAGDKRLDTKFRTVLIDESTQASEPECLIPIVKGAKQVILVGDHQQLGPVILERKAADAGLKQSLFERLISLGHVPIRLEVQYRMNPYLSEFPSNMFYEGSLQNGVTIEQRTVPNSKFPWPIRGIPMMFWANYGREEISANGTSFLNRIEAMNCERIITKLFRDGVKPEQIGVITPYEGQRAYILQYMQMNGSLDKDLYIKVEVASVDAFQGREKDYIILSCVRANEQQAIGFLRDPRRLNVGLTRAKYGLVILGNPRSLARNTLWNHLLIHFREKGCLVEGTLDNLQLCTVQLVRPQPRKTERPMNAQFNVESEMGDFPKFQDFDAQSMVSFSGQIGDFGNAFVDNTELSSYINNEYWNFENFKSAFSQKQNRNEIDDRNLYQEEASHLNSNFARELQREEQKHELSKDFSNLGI
Briefly: pull-down.

In another assay the target is T3, CBP-Upf1-CH-HD (S. cerevisiae, UniProt P30771 54-851).
T3 sequence: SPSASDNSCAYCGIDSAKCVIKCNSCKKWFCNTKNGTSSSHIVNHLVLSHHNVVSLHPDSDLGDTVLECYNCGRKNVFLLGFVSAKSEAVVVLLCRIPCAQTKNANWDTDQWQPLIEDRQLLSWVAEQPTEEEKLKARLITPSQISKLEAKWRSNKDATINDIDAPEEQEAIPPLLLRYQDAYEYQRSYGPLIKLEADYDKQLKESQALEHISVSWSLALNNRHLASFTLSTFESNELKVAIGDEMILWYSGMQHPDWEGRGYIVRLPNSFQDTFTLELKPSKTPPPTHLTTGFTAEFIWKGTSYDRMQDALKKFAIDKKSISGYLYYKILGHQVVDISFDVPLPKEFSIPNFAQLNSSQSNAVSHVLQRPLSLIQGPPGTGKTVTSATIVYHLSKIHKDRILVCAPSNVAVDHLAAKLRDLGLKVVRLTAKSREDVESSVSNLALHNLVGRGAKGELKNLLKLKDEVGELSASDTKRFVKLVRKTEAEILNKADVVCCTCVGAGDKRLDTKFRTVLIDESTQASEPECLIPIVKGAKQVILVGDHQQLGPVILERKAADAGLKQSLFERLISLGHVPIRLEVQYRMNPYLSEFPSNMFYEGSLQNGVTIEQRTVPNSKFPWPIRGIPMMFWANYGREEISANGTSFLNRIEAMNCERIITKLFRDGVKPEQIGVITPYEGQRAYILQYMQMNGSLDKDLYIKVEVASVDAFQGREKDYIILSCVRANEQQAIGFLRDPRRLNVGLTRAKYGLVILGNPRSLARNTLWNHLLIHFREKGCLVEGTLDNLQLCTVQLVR
Briefly: pull-down.

Another assay deals with T4, CBP-Upf1-HD (S. cerevisiae, UniProt P30771 221-851).
T4 sequence: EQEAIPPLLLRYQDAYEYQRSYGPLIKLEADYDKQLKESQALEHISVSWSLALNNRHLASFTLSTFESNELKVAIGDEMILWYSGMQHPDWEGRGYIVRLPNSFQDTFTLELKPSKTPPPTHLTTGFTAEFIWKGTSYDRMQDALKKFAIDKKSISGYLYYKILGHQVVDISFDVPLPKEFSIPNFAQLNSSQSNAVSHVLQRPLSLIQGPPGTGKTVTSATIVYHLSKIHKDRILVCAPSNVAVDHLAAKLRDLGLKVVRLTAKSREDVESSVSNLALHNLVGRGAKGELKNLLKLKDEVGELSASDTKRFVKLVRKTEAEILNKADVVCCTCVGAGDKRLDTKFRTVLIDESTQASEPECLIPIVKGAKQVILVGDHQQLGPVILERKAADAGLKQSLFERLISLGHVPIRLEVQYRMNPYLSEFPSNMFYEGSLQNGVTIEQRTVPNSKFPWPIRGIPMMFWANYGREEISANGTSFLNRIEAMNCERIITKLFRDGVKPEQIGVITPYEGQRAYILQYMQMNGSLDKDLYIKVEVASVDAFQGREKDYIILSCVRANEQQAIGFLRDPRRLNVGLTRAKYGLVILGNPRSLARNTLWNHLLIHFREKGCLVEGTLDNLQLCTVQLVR
Briefly: pull-down.

The next assay addresses T5, GST-Ebs1 (aa 1-591) (S. cerevisiae, UniProt Q03466 1-591).
T5 sequence: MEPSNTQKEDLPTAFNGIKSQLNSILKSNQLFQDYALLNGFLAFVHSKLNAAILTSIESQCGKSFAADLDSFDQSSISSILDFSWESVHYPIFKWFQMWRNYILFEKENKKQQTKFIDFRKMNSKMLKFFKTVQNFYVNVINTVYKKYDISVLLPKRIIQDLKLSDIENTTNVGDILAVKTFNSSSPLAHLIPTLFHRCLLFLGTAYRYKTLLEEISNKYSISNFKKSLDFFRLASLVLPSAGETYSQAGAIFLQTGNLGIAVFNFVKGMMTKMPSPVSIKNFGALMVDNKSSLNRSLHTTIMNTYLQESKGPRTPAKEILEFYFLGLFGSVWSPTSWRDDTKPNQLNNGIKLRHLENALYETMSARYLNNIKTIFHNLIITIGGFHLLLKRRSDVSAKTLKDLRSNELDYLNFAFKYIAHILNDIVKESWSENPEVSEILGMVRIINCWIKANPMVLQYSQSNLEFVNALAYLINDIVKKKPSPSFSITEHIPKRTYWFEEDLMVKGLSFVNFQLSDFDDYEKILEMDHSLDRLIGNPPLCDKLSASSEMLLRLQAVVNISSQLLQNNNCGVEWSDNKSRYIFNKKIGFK
Briefly: pull-down.

Chain of FITC-labeled Dcp2-UBM2 peptide (aa 694-718) (S. cerevisiae) (P53550 694-718): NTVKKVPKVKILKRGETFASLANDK
Chain of FITC-labeled Dcp2-UBM1 peptide (aa 456-479) (S. cerevisiae) (P53550 456-479): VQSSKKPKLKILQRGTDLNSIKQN

As to CBP-Upf1-CH-His (domain or fragment), the values for the dissociation constant Kd in assay [1] and in assay [2] were 25.1 µM and 60.1 µM, respectively. The same molecule displayed a stoichiometry N in assay [3] of 2.

B1: GST-Dcp1/Dcp2-S heterodimer (complex)
chain 1: MTGAATAAENSATQLEFYRKALNFNVIGRYDPKIKQLLFHTPHASLYKWDFKKDEWNKLEYQGVLAIYLRDVSQNTNLLPVSPQEVDIFDSQNGSNNIQVNNGSDNSNRNSSGNGNSYKSNDSLTYNCGKTLSGKDIYNYGLIILNRINPDNFSMGIVPNSVVNKRKVFNAEEDTLNPLECMGVEVKDELVIIKNLKHEVYGIWIHTVSDRQNIYELIKYLLENEPKDSFA
chain 2: MSLPLRHALENVTSVDRILEDLLVRFIINCPNEDLSSVERELFHFEEASWFYTDFIKLMNPTLPSLKIKSFAQLIIKLCPLVWKWDIRVDEALQQFSKYKKSIPVRGAAIFNENLSKILLVQGTESDSWSFPRGKISKDENDIDCCIREVKEEIGFDLTDYIDDNQFIERNIQGKNYKIFLISGVSEVFNFKPQVRNEIDKIEWFDFKKISKTMYKSNIKYYLINSMMRPLSMWLRHQRQIKNEDQLKSYAEEQLKLLLGITKEEQIDPGRELLNMLHTAVQANSNNNAVSNGQVPSSQELQHLKEQSGEHNQQK
On to B1, for which the binding result (in assay [4]; in the assay with CBP-Upf1-HD-Ct; with CBP-Upf1-CH-HD; with CBP-Upf1-HD) was “binds” each time.

B2: TS-Nmd4-His (full-length Nmd4, aa 1-218) (natural protein)
chain: MTQYNFIIDASAFEKGLGNIKRWCSDCTEAVTLNFYIPTFTLNELDFLQQRRKSFAARESLKFIDRLDDSKFANLKVFIEFPEVLDIILWSDVMEHNDSSGKINIAKLPKRLKNLLKSCIYKCYLEGNEGLHWFLISEDPQIREMAMQCNIPSCSIVDVDSILSKDMNDKSFRESEKFNNMMLKNGTKEESENGREIIRTNFNKTVYASRGTGELWSP
Turning to B2, the binding result (in assay [4]; in the assay with CBP-Upf1-HD-Ct; in the assay with CBP-Upf1-CH-HD; with CBP-Upf1-HD) was “binds” throughout.

B3: CBP-Upf1-Ct (domain or fragment)
chain: PQPRKTERPMNAQFNVESEMGDFPKFQDFDAQSMVSFSGQIGDFGNAFVDNTELSSYINNEYWNFENFKSAFSQKQNRNEIDDRNLYQEEASHLNSNFARELQREEQKHELSKDFSNLGI
In the case of B3, the binding result with GST-Ebs1 (aa 1-591) is given as “binds”.
